This series can be described thus: label from the status in PepcDB records.

Drawing on a protein production outcome set (Wang et al. 2014), this text covers protein production for 13 sequences.

Turning to “MQHFKTKIEHFQIYIYFSAIILGILIGTNFPGISSILETLVAICIAILMFSMFSQIPFFELQKRVLNLKFVTALIIANFVILPILVYFLISIFNISSSAILIGLFLVLLTPCIDYVIVFTALGKGNAQYMLISTPILFVLQILLLPLYLTMFLDKSILTIIDIEPFIHSFFTFIIIPLLLALTLQLLSKKYYVMSQTLKATSWLPELFMSLVLFTVVGSQINKIANDLSVVVKVAPIYIIFMLIAPFIGYFTGKLFHLKPSILRTLAFSTSTRNALVVLPLALSLPDQWVTITTTVIITQTLIELIGELFYIKMIPSLIKS”, the protein production entry was “failed”.

Turning to “MQICDSYNQKNSLFNAMNRFIGAVNNMDQTVMVPSLLRDVPLDQEEEKEVTSFQDGDMYGSYVLLKSIRNDIEWGVLQAEERRKEKHGVTTTSLEVSRIEPNDKDLEKLFHYHLSGLHTVLAKLTRKANTLTNRYKQEIGIGGCGN”, the protein production result is “failed”.

Consider “MQIFLLFLSFAKAIHKIILIYGETAFPTVCSALQIYSLMKLKTLICATTAFWACCSCTSGELSPVDYVDPFIGTGFHGHTYPGATVPFGAVQLSPDTRAGNWDACSGYHYNDTTLKGFSHTHLSGTGCIDLGDILFRPTTLKPDLTTESIYQPAAFSHKDEDASAGYYSVVLKEEGIKAELTVTAHAGMHRYTFSSGKEASIIIDLTHLLDNEYIYEAELEQTAANEITGMRRTRGWTDNQYVYFVAQFSKPFQAIDFIQNKKMVSAGVKLNGTDLQACLSFDNSNGEPVIAKVGLSIVSEKNARENLETEVIGFDFDAVRSAARSAWEQALSAITVKGGNTDDLKNFYTAMYHSMVVPNVVSDVNGEYRRHNMEIGQLPKGKVQYSTFSLWDTFRAWNPLMTLIDTTLVNNMINSFLDIYESSGELPIWPLSAGETGTMIGYHAVSVIADAYMKGIRGFDAEKALEAMVVSSEKNKKGADYYIQNGFIPSNIKKESISCLLEFAYDDWCIARMAQEMGKDDIYQKYIQRSQNYINVFDGNTKFFRPKRMDGNWETPFNPIEIGRAYTEATAWQYRFFVPHDVSGMAQLFGGKKEFITALDSIFTVESDVHGDLVDITGLIGQYVHGNEPSHHIAYLYDYVGQPWKTQEMTRRLLHEMYAPTPEGIIGNEDCGQMSGWYILSSLGIYSVCPGSNEFALTTPLFEKAVVNLANRKTLTILANNPKKNVYITKVELNGQPIDVNFITYAQLMEGGELRFTLSDKPNMERGVSSEASPYSYTKDEVVSIPYVDKDLNLFMDKVTVALATTTKDAEIRYTLDGSEPTEQSALYEQPFELDKTTLIKAKGFKEGLRSSRTLSISATKAELKAALSVNPTQNGTSYKYFEGTYQKVADVEKSPLLESGVMPEPSIKGAKQEDHFGYIFSGLINVPEDGVYTFQTRSDDGSVLYIHDEQVVNNDASHAAIPATGMVALKKGFHPYKLYYFEDYEGEYLSWAWKLPSAEKLAPIPASALFVK”, for which the protein production result is “failed”. The result for “MQITAAAQHDYQQAIAAYQAGEFEAAIAQLDRLLGDVPDWAAALGLQGLCYYCCDQRETGITLLRRAIALDPTDPTHFNNLGNLLQRQGHLTEALERLTQALAIDPTHVAARFNRAITLQKLGDPATALQDYQQLLEADPDNPEIRYNSAHAALAIGDWDFGLPAYEARCQQLQHFPEIEASLKLPRWQGQDLDQQTLLVWGEQGFGDRLMGARWIPLLRQRYPQARIVWQTSPSLVRLFQTLADDRLMVLAEGAELPVCDWQVPLLSLMLIFQSDRNRLPWHGPYFFPHKGDFLPASDRPRLGLVWSAGRNPAQSAEFAANKSCPLALLWSVLSVSGWDVVSLQVDEARQDLQTLSDPLLDLGSEIGDFQDTVDRLAHLDLLITVDTAIAHLGGMIGLPTWVLLPAVPDWRWELSGATTPWYPSLRLFRQPSPGDWSGAIAELQTALAEFQPAPQHWDYRGELSIADWIQAADRAFTAQNWPRAEWLIRQAVAIAPEEPSFHRALGRSLKQQGDYAGAAQALAIACELAPTQAEFWHERSSLEYYDNQLTAALNSLNQAIALQGATADHLISRGVLHYRLGQFPESCADYDAAAAIAPESPLLRCNRGFLQLHWGNWLQGWPDLEVRFDFQSDLDPFQYRQLAPAWQGEPLGQQTLLIWGEQGLGDHLLFCRWLPELRLQHPQAQLIFVTDPLLERLMQQLADDRLQICCLDEPVPACDRQVALMSLPAIAQTTPATVPWRGAYFQSSMPPLRCAETLQVGFVWASGKRSSPETARLYREKSCPLNELLPALLAVPAVDYYSFQVGADVAELQPWLEQSDRLFDLSEQLQDFQDTADWLAEMDVLISVDTAVANLAGMMALPVWTLLPEPANWRWGLTGHTTPWYPSMRLYRQTQRGNWSGAIAQIQQDLQQLSRDRDCLVT” reads “failed”. Consider “MQKIALCITGASGVIYGIKLLQVLEELDFSVDLVISRNAKVVLKEEHSLTFEEVLKGLKNVRIHEENDFTSPLASGSRLVHYRGVYVVPCSTNTLSCIANGINKNLIHRVGEVALKERVPLVLLVREAPYNEIHLENMLKITRMGGVVVPASPAFYHKPQSIDDMINFVVGKLLDVLRIEHNLYKRWRG”, for which the protein production result is recorded as “not failed”. Turning to “MQKQLLLGVEAIAQAALDAGISGVYAYPGTPSTEITEHIQNSRMAKERNVHREWAANEKTAMESALGMSYAGKRALVCMKHVGMNVAADCFMNAAITGANGGMVIVAADDPSMHSSQNEQDSRVYGQFAMIPVMEPSNQQEAYDMTRLAFDLSERLGTPVMMRITTRLAHSRAGVVQTEPIGENELHLPEDKRQYVLLPGIAKKRYRILLDKQTDFVRESENSPYTEYVDAADKSKGIVACGIAYNYLMEAFKAQVPYPVLKVTQYPIPHKQMERLLNECGDIVVMEEGYPVVEQLLKGFPGLERIKGRLDGTLPRDGELNPDHVAKAFNIPVVEGEPIPDLVAARPPALCKGCSHRDVYDALNEVLTEYPNGRVFSDIGCYTLGALPPYEAINSCVDMGASITMAKGAADAGLFPAVSVIGDSTFTHSGITGLLDAINENSNITVIISDNESISMTGGQHSSAYGKVEAICRGIGVDPDHIRELLPVPKNHDELCSIIREEINYEGVSVIIPRRVCIQKHARDAKAAKRAKAKE”, the protein production entry was “not failed”.

Consider “MQKSEGSGGTQLKNRATGNYDQRTSSSTQLKHRNAVQGSKSSLSTSSPESARKLHPRPSDKLNPKTINPFGEQSRVPSAFAAIYSKGGIPCRLVHGSVKHRLQWECPPESLSFDPLLITLAEGLRETKHPYTFVSKEGFRELLLVKGAPEKAIPLLPRLIPVLKAALVHSDDEVFERGLNALVQLSVVVGPSLNDHLKHLLTSGSLSIIKSKIPTYCSICC”, for which the protein production entry is given as “failed”. The result for “MQKTLTSAIDIPEQMQNDWQNMLDILSNVINVPAALIMRIYDNDIKVFSSSSSTENPYIKGATEKLNQGLYCETVIEERQELTVFNALVDPEWRSNPDLKQNMIAYCGLPLYWPDNTPFGTLCILDKKENHFSPTYQKLMKTYQHSIEAQLNTLYQHADLLNRHQELQAEVARTTQHLNEINIKLSNEIDCRRAAEQKVEYHKNHDVNTGFLNPIAIHKHVDSLIKSETKFVLLHIHFANSRKIQQEYGYQAFDSLLIEYRSKLTKITDTSVTGRLGSSDILLIIQTDKEKLPQLCQHLSEIGQANYTANEQSLHLQTYVGAVHSKEGISRSDLLQFAYDTVVKCQSLGKTFTIADVSLPTQSSLSEHKIERYLLEAVRNHDLFLNYQPKVCPVNKKWIGCEALLRWNHPHLGAIANDVLIQLAERNGLIYELGNFALRNAIQQASEWILHSPNFVMAVNISAVQLKDPHFVTHIKQLLSLYQLPSKNLELEVTESGLISDEPLAITTLSQLNNMGISIALDDFGTGYASFQYLKKYPFSSLKIDKSFIANIEQNEDDQNIVCAMINIAKKLQLKVVVEGVENQNQEAFVVKEGIDLIQGYLYSKPISATDFEEGLFNQSSIGTPYFHFV” reads “failed”. The result for “MQLFHKTVNRRGTHSIKWDTYKNEELIHAWIADMDFEVPQPIQTALKKRIEHPIFGYTLPPENIGDIICNWTKKQYNWDIQKEWIVFSAGIVPALSTSIQAFTKENESVLVQPPIYPPFFEMVTTNNRQLCVSPLQKQNDTYAIDFEHLEKQFQQGVKLMLLCSPHNPIGRVWKKEELTKLGSLCTKYNVIVVADEIHSDIIYADHTHTPFASLSEELAARTITCMAPSKTFNIAGLQASIIIIPNEKLRQAFTSIQYRQGFHGLNIFAYTAMQSAYTECNDWLNEIRFYIEDNAKFACEYIKDHIPTLSVMKPEGSFLLWIDCSALNLSQDERTKLLEEKGKIIVEPGEKYGLGGEEHIGINIGCPRSVLEEILNRLRHTFS” reads “not failed”; that for “MQLGFAMLADPILLITILLGFAMAWAIGANDAANSMSTAVGAGAITPRQAVIIAGVLEFMGAYFFGKTVTETIRKGIIDPSKITDPNVLIFGSIAALIGATIWLVIATKYGLPVSTTHSIIGGIVGYGIVYGGMSIVNWDKMIKVVLSWILSPIVGAIFAYLVFRALSKTVLQSKDPVKSAKRWSPFWIGLAFVVIGTMFYIKVLHGNSLLEGFLKYGMPAGILTFIVVSLILEKRFPATDPYLGAERVFRRVQVITSAYVALAHGANDVANAIGPVAAVYTVAMFGLAGAKVPVPRWILALGGLGIAIGVATYGYKVMETVGKKITELTNTRGFTIDFSAATVVLIASWLGMPISTTHTVVGAVIGVGLARGIKAINKDIVKDIIISWFVTVPAAGVIAGIIFKALMMLMG”, “failed”; that for “MQLPPIPDNELQRLSTLKALNILDTNAEERFDRITRLTRRIFALPICVVTLVDASRQWFKSCQGLEVTETSRDISFCGHAINHDGIFIVNDAQMDPRFHDNPLVTQSPHIRFYAGYPLTIRGEYRVGTLCLIGNEPREFSADDIETLTDLGQMVEAELLSISLNTLDPLTMISNRRGFEQLAFQSLASCRRTNSQAALVFFDLDFFKELNDSFGHRKGDQVLYDFAHLLMAAFRESDVIARLGGDEFVVLLSFVKIDAVHVAIERFQSLLEQYNQQHPQQPTLVSSIGVAHWSPELDINLEDLLDAADRAMYQDKAEHHLNKPE”, “failed”. With “MQLQVMNSPFNQEQAELLNRLLPTLTESQKIWLSGYLSAQSVSAQEAAGTPAAAVSAEAPAPAVSKEVTVLYGSQTGNAQGLAENAGKQLEQSGFQVTVSSMSDFKPNQLKKVTNLLIVVSTHGEGEPPDNALSFHEFLHGRRAPKLEDLRFSVLALGDSSYEFFCQTGKEFDQRLEELGGKRISPRVDCDLDYDEPAAEWLEGVLKGLNEAGGGSAAPAPAAASQTGESSYSRTNPFRAEVLENLNLNGRGSNKETRHVELSLEGSGLTYEPGDSLGVYPENDPELVELLLKEMNWDPEEIVTLNKQGDVRPLKEALISHYEITVLTKPLLEQAAQLTGNDELRELLAPGNEENVKAYIEGRDLLDLVRDYGPFSVSAQEFVSILRKMPARLYSIASSLSANPDEVHLTIGAVRYDAHGRERKGVCSILCAERLQPGDTLPVYVQHNQNFKLPKDPETPIIMVGPGTGVAPFRSFMQEREETGAEGKAWMFFGDQHFVTDFLYQTEWQNWLKDGVLTKMDVAFSRDTEEKVYVQHRMLEHSAELFEWLQEGAAVYICGDEKHMAHDVHNTLLEIIEKEGNMSREEAEAYLADMQQQKRYQRDVY”, the protein production result was “failed”.

As for “MQLSHRPAETGDLETVAGFPQDRDELFYCYPKAIWPFSVAQLAAAIAERRGSTVAVHDGQVLGFANFYQWQHGDFCALGNMMVAPAARGLGVARYLIGVMENLAREQYKARLMKISCFNANAAGLLLYTQLGYQPRAIAERHDPDGRRVALIQMDKPLEP”, the protein production result is “not failed”.
